Measurements: PMC2699511

Target: GST-Vif wild type (HIV-1, UniProt P69723 1-192)
Assay: EMSA

Sequence of GST-Vif wild type (P69723 whole entry): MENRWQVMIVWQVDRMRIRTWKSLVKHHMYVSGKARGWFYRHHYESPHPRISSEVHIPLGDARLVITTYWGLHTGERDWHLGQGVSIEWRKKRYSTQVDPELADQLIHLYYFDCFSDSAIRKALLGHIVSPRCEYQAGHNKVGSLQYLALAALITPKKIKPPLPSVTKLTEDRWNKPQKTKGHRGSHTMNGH

Binder: AAAAAAAAAAAAAAAAAAAAAAAAAAAAAAAAAAAAAAAA (ssRNA) [poly(rA40)]
- binding result: binds
